Measured values taken from paper PMC3338918.

Legend:
human VEGF-A165 (human) [1] = molecular target: human VEGF-A165 (human)
human VEGF-A165 (human) [2] = molecular target: human VEGF-A165 (human); remark: listed apart in the source
murine PlGF-2 (mouse) [3] = molecular target: T1, murine PlGF-2 (mouse) (UniProt P49764)
T1 sequence: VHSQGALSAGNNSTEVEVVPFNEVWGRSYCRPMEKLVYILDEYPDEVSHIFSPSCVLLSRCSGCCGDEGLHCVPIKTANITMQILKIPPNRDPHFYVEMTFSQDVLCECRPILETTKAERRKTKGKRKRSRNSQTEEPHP

human PlGF-2 (human) [4] = molecular target: T2, human PlGF-2 (human) (UniProt P49763)
T2 sequence: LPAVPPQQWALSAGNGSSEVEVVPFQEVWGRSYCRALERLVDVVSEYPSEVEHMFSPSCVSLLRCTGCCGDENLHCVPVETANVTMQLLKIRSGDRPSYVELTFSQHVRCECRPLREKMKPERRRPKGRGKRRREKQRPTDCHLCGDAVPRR

murine PlGF-2 (mouse) [5] = molecular target: T1, murine PlGF-2 (mouse); remark: listed apart in the source
human PlGF-2 (human) [6] = molecular target: T2, human PlGF-2 (human); remark: listed apart in the source
[7] = molecular target: VEGF Trap (aflibercept) (human); experiment: SPR; Biacore 3000, CM5 chip, 25°C, HBS-T (10 mM Hepes, 150 mM NaCl, 3.4 mM EDTA, 0.05% polysorbate 20, pH 7.4); VEGF Trap or receptor-Fc captured at low density on amine-coupled Protein A, ligands injected (1.0–0.062 nM VEGF-A, 2.5–0.156 nM VEGF-B(10-108), 5.0–0.078 nM PlGF); kd of VEGF-A ligands by the 'fixed kd' procedure on a Biacore 2000 (~2–3 h); KD = kd/ka
[8] = molecular target: VEGF Trap (aflibercept) (human); experiment: KinExA solution equilibrium assay; KinExA 3000, room temperature (25°C); VEGF Trap (1–50 pM) equilibrated 10–96 h with varying ligand; unbound inhibitor captured on VEGF-A165-coupled Azlactone beads and detected with Cy5 anti-human IgG; one-site homogeneous binding model
human VEGFR1-hFc (human) [9] = molecular target: human VEGFR1-hFc (human) (UniProt P17948)
Chain of human VEGFR1-hFc (human) (P17948 27-758): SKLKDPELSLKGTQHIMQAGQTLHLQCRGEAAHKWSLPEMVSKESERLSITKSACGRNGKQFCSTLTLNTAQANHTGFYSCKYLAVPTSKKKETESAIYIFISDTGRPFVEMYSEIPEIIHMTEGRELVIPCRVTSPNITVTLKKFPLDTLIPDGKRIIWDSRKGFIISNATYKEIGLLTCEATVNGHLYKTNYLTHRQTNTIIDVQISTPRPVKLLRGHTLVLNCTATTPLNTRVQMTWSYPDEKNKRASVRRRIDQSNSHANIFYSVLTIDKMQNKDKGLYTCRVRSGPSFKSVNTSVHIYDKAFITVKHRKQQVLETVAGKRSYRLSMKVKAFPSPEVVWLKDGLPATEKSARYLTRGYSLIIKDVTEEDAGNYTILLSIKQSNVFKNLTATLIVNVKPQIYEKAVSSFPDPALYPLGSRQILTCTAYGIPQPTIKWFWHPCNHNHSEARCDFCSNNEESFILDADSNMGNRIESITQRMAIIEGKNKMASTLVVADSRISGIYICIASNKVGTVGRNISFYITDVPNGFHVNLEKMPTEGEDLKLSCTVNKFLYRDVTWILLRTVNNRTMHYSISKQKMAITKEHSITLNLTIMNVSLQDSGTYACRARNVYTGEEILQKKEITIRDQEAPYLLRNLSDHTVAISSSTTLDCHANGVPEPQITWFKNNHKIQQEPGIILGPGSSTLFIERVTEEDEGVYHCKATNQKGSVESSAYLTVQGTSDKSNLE

human VEGFR1-hFc (human) [10] = molecular target: human VEGFR1-hFc (human) (UniProt P17948); experiment: SPR; Biacore 3000, CM5 chip, 25°C, HBS-T (10 mM Hepes, 150 mM NaCl, 3.4 mM EDTA, 0.05% polysorbate 20, pH 7.4); VEGF Trap or receptor-Fc captured at low density on amine-coupled Protein A, ligands injected (1.0–0.062 nM VEGF-A, 2.5–0.156 nM VEGF-B(10-108), 5.0–0.078 nM PlGF); kd of VEGF-A ligands by the 'fixed kd' procedure on a Biacore 2000 (~2–3 h); KD = kd/ka
human VEGFR2-hFc (human) = human VEGFR2-hFc (human) (UniProt P35968); experiment: as above
Chain of human VEGFR2-hFc (human) (P35968 20-764): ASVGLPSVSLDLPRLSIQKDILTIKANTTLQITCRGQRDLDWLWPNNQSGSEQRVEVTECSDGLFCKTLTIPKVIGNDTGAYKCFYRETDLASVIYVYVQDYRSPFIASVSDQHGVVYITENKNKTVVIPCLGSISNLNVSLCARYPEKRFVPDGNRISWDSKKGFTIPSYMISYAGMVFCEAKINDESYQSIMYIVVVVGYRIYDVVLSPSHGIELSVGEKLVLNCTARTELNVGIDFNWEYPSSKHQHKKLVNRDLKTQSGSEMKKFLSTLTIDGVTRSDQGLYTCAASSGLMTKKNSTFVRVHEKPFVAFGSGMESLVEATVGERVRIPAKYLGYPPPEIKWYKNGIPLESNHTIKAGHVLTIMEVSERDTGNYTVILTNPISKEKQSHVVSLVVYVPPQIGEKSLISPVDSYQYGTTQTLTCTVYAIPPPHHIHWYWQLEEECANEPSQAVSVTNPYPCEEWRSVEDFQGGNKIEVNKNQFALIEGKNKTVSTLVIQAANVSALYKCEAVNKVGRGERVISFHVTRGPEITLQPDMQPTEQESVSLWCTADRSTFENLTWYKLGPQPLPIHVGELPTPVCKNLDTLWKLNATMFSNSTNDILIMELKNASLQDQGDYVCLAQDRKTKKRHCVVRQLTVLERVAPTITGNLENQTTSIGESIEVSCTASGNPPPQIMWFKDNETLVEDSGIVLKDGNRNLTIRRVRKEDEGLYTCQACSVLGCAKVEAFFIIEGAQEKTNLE

Chain of VEGF Trap (aflibercept) (Fc fusion) (chain): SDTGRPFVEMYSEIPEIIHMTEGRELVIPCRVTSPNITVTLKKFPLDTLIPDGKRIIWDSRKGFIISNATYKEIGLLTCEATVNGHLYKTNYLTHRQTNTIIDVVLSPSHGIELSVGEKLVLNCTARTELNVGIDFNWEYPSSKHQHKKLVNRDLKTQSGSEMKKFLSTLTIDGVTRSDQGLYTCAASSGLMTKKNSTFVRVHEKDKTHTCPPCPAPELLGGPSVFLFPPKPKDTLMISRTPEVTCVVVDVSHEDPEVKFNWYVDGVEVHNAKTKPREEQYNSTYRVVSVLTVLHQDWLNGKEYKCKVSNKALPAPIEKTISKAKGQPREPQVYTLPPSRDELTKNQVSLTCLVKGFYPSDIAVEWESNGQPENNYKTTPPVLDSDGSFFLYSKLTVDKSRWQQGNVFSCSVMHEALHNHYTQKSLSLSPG

VEGF Trap (aflibercept) (Fc fusion)
reduction of HUVEC migration induced by 130 pM VEGF-A165 (modified Boyden chamber; inhibitor 0.013–13 nM), at a 1:1 molar ratio of VEGF Trap and VEGF-A165 (human VEGF-A165 (human) [1]): 90%
IC50 of blocking luciferase activity induced by 20 pM hVEGF-A121 in the HEK293/VEGFR1 reporter cell line (blocks VEGF-A121 with VEGFR1) (human VEGF-A121 (human)): 15 pM
IC50 of blocking luciferase activity induced by 20 pM hVEGF-A165 in the HEK293/VEGFR1 reporter cell line (blocks VEGF-A165 with VEGFR1) (human VEGF-A165 (human) [2]): 16 pM
IC50 of blocking luciferase activity induced by 20 pM mPlGF-2 in the HEK293/VEGFR1 reporter cell line (blocks mPlGF-2 with VEGFR1) (murine PlGF-2 (mouse) [3]): 104 pM
IC50 of blocking luciferase activity induced by 40 pM hPlGF-2 in the HEK293/VEGFR1 reporter cell line (blocks hPlGF-2 with VEGFR1) (human PlGF-2 (human) [4]): 2890 pM
block of HUVEC migration induced by mouse PlGF-2 (3.5 nM) by a 100-fold excess of VEGF Trap (modified Boyden chamber) (murine PlGF-2 (mouse) [5]): 80%
block of HUVEC migration induced by human PlGF-2 (7.1 nM) by a 100-fold excess of VEGF Trap (modified Boyden chamber) (human PlGF-2 (human) [6]): 80%

human VEGF-A121 (ligand)
Kd [7]: 0.36 pM
koff [7]: 1.35e-05 s⁻¹
kon [7]: 3.75e+07 M⁻¹ s⁻¹
Kd [8]: 0.18 pM
EC50 of luciferase activation in HEK293/VEGFR1 cells (dose response, 0.022 pM to 4.0 nM) (human VEGFR1-hFc (human) [9]): 13 pM

human VEGF-A165 (ligand)
Kd (human VEGFR1-hFc (human) [10]): 9.33 pM
koff (human VEGFR1-hFc (human) [10]): 0.00028 s⁻¹
kon (human VEGFR1-hFc (human) [10]): 3e+07 M⁻¹ s⁻¹
Kd [7]: 0.49 pM
koff [7]: 2.01e-05 s⁻¹
kon [7]: 4.1e+07 M⁻¹ s⁻¹
Kd (human VEGFR2-hFc (human)): 88.8 pM
koff (human VEGFR2-hFc (human)): 0.00135 s⁻¹
kon (human VEGFR2-hFc (human)): 1.52e+07 M⁻¹ s⁻¹
Kd [8]: 0.66 pM
EC50 of luciferase activation in HEK293/VEGFR1 cells (dose response, 0.022 pM to 4.0 nM) (human VEGFR1-hFc (human) [9]): 17 pM

human VEGF-B(10-108) (domain or fragment)
Kd [7]: 1.92 pM
koff [7]: 6.74e-05 s⁻¹
kon [7]: 3.52e+07 M⁻¹ s⁻¹
Kd [8]: 17.5 pM
